The target in assay [1] is T1, Human Papillomavirus 1a L1 (Human Papillomavirus 1a, UniProt P03099 1-508).
T1 construct: also called HPV 1a L1; cbe_252016
T1 sequence: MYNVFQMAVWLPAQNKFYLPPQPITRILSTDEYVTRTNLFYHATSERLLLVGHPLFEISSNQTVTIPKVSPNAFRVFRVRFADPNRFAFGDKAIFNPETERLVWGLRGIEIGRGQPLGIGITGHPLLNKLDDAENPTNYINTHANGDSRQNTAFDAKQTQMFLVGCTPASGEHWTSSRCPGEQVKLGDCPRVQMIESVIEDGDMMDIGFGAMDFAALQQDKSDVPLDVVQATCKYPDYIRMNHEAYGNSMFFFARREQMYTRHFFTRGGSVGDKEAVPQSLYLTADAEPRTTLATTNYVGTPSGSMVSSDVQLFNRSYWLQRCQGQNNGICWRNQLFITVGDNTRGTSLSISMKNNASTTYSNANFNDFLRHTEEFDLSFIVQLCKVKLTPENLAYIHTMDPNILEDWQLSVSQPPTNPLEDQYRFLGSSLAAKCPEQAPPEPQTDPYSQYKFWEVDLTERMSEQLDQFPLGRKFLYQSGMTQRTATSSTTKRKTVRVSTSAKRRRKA
As to the kind of experiment: Y2H; INT ID 439.

Another assay concerns the target T2, ANXA2 (human, UniProt P07355 2-339).
T2 construct: also called cbe_4267867
As to the kind of experiment: Y2H; INT ID 426.

Assay [2] deals with T3, exportin 1 (CRM1 homolog, yeast) (human, UniProt O14980 1-1071).
T3 construct: also called XPO1; cbe_3621798
T3 sequence (O14980 whole entry): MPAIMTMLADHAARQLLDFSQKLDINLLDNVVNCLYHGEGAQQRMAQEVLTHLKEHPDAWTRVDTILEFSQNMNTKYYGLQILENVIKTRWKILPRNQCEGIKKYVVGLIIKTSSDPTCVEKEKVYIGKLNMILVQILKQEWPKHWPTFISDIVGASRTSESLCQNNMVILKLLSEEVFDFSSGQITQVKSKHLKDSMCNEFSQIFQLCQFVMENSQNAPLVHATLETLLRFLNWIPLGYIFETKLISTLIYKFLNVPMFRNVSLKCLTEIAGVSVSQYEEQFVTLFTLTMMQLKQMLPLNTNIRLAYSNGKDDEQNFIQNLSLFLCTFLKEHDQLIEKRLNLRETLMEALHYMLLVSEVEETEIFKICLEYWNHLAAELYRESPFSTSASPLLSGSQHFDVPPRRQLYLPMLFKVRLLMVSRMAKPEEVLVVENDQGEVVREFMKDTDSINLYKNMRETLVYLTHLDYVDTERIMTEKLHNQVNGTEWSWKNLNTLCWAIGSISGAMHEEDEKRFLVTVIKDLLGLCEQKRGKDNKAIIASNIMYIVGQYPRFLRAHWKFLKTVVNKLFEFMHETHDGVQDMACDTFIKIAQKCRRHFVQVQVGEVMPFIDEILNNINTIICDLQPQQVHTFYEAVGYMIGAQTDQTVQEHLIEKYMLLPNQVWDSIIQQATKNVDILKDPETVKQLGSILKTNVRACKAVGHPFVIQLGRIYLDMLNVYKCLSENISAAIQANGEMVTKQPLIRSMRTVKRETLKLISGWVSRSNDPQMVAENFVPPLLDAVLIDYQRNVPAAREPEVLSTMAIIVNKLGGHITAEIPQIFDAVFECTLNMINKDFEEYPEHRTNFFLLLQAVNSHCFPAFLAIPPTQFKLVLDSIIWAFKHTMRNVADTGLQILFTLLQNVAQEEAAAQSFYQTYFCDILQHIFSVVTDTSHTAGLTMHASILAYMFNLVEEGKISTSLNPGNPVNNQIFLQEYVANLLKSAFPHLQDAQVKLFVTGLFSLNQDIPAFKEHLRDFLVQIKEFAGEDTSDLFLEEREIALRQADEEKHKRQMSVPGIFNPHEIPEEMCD
Kind of assay: Y2H; INT ID 424.

The next assay deals with T4, hexokinase 1 (human, UniProt P19367 22-917).
T4 construct: also called HK1; cbe_3665307
T4 sequence: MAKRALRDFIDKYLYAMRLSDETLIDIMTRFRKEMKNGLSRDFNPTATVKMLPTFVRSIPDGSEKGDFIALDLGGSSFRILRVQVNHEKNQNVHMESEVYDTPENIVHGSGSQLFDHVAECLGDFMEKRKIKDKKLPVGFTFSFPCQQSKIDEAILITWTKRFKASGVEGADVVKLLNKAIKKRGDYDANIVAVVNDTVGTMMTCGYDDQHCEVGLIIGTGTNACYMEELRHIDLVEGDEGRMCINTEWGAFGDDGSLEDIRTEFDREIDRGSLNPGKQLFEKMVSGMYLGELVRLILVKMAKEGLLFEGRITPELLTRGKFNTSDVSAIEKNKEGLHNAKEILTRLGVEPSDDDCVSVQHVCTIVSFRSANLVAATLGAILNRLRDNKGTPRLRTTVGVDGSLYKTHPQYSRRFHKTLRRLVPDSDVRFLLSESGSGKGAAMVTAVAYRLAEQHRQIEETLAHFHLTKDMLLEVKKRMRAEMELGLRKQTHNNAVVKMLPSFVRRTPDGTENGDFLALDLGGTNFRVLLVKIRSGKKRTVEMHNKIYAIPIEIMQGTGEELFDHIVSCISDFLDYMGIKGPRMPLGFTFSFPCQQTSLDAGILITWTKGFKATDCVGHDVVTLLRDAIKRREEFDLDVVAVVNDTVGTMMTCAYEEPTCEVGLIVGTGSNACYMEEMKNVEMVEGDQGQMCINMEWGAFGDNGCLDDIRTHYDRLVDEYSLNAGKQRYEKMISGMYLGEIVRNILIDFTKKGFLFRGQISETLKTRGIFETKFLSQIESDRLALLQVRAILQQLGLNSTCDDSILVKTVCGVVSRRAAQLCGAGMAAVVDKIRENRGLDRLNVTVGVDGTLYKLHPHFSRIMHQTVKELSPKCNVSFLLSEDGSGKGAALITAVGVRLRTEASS
Kind of assay: Y2H; INT ID 425.

In assay [3] the target is T1, Human Papillomavirus 1a L1. As to the kind of experiment: Y2H; INT ID 440.
Assay [4] deals with T1, Human Papillomavirus 1a L1. As to the kind of experiment: Y2H; INT ID 438.
Another assay has as its target T5, RBP4 (human, UniProt P02753 19-201).
T5 construct: also called cbe_4265947
Kind of assay: Y2H; INT ID 433.

For assay [5], the target named is T6, adaptor-related protein complex 2, mu 1 subunit (human, UniProt Q96CW1 1-435).
T6 construct: also called AP2M1; cbe_3789063
T6 sequence (Q96CW1 whole entry, one chain of several): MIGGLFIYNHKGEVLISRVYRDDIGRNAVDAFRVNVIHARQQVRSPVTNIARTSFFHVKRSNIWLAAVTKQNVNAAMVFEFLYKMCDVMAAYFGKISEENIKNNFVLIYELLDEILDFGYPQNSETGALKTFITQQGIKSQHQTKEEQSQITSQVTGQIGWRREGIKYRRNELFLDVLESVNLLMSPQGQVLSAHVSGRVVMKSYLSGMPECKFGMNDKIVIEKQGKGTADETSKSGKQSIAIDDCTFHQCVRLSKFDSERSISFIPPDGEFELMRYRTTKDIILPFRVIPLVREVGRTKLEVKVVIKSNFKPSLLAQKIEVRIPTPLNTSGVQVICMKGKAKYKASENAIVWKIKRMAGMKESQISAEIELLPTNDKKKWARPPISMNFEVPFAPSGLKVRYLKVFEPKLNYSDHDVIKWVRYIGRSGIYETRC
Kind of assay: Y2H; INT ID 430.

Assay [6] concerns the target T7, tissue factor pathway inhibitor (lipoprotein-associated coagulation inhibitor) (human, UniProt P10646 29-304).
T7 construct: also called TFPI; cbe_3834015
T7 sequence: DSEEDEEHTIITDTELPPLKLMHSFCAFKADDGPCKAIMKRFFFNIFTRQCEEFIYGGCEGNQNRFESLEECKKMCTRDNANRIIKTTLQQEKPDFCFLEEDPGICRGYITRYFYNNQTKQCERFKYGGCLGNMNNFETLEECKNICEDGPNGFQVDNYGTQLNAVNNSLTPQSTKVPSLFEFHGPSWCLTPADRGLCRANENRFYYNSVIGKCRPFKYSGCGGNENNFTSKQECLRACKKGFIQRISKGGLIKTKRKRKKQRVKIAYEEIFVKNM
Kind of assay: Y2H; INT ID 309.

In assay [7] the target is T8, Homo sapiens QUAKING isoform 5 (QUAKING) (human, UniProt Q96PU8 5-341).
T8 construct: also called cbe_3810032
T8 sequence: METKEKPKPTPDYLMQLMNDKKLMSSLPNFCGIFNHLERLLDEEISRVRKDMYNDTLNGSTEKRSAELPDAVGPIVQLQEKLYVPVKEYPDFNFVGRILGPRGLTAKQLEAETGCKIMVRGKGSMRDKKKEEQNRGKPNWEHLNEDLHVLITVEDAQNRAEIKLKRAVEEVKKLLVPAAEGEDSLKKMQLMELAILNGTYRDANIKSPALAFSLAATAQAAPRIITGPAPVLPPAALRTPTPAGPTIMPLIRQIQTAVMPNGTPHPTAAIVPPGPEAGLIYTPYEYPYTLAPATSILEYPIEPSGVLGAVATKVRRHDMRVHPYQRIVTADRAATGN
As to the kind of experiment: Y2H; INT ID 431.

The target of assay [8] is T9, phosphoglycerate mutase 1 (brain) (human, UniProt P18669 2-254).
T9 construct: also called PGAM1; cbe_3820530
T9 sequence: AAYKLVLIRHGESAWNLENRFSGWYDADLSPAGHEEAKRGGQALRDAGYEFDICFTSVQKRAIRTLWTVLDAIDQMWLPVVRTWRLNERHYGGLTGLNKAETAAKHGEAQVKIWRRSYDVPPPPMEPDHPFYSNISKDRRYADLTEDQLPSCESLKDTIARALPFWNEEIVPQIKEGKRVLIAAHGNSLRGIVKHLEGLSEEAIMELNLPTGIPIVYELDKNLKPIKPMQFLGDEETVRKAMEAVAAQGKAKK
As to the kind of experiment: Y2H; INT ID 432.

The next assay addresses T10, STX4A (human, UniProt Q12846 1-297).
T10 construct: also called syntaxin 4; cbe_4270186
T10 sequence: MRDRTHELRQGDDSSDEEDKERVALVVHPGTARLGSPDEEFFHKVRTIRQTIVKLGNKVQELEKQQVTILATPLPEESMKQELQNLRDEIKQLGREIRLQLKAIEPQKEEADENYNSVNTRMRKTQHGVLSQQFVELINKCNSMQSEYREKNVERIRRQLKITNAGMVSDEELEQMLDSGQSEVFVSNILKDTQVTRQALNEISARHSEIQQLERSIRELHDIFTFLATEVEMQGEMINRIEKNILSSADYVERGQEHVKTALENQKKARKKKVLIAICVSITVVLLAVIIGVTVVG
Kind of assay: Y2H (told in text).

Another assay concerns the target T11, PSMC1 (human, UniProt P62191 2-440).
T11 construct: also called proteosome 26S subunit; proteosome subunit PMSC1
As to the kind of experiment: Y2H (told in text).

A further assay deals with T12, RPS26 (human, UniProt P62854 2-115).
T12 construct: also called cbe_4270015
As to the kind of experiment: Y2H; INT ID 99.

For another assay, the target named is T13, PTPN2 (human, UniProt P17706 1-415).
T13 construct: also called cbe_2576474
T13 sequence (looked up): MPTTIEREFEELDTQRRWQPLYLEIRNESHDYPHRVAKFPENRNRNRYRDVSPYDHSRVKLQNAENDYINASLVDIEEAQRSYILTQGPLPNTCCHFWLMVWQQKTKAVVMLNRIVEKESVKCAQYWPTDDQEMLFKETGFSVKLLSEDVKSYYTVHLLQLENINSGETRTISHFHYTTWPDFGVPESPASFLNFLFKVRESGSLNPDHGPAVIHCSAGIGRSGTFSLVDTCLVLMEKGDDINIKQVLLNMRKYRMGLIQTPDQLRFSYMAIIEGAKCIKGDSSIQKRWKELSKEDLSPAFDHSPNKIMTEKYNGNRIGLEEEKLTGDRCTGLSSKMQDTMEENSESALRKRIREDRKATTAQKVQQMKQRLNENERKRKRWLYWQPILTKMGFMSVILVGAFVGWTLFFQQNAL
As to the kind of experiment: Y2H; INT ID 160.

Experimental findings from patent publication US20050100554A1 (published 2005) are described below.

T2 sequence (P07355 2-339 limits assumed): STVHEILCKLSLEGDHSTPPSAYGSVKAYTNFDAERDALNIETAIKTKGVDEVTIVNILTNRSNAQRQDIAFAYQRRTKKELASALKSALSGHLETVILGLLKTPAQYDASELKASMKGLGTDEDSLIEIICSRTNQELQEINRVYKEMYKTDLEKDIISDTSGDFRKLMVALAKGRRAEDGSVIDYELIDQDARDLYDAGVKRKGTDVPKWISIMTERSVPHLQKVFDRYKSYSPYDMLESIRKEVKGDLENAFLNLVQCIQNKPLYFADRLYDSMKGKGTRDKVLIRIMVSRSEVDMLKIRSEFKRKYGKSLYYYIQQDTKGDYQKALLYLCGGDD
T11 sequence (P62191 2-440 limits assumed): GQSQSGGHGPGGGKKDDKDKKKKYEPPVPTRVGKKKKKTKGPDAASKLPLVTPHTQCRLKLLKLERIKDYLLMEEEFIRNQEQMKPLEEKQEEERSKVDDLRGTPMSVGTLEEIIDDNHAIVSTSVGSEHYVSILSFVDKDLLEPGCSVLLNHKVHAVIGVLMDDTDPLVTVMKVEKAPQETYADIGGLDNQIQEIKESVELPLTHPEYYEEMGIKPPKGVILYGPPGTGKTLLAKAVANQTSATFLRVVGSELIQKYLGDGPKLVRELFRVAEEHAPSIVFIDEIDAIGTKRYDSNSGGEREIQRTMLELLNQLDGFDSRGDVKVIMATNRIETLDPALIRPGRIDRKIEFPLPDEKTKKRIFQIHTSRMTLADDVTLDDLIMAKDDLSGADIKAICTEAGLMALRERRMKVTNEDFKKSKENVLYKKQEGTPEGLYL

B1: NR1H2 (receptor)
chain: MSSPTTSSLDTPLPGNGPPQPGAPSSSPTVKEEGPEPWPGGPDPDVPGTDEASSACSTDWVIPDPEEEPERKRKKGPAPKMLGHELCRVCGDKASGFHYNVLSCEGCKGFFRRSVVRGGARRYACRGGGTCQMDAFMRRKCQQCRLRKCKEAGMREQCVLSEEQIRKKKIRKQQQESQSQSQSPVGPQGSSSSASGPGASPGGSEAGSQGSGEGEGVQLTAAQELMIQQLVAAQLQCNKRSFSDQPKVTPWPLGADPQSRDARQQRFAHFTELAIISVQEIVDFAKQVPGFLQLGREDQIALLKASTIEIMLLETARRYNHETECITFLKDFTYSKDDFHRAGLQVEFINPIFEFSRAMRRLGLDDAEYALLIAINIFSADRPNVQEPGRVEALQQPYVEALLSYTRIKRPQDQLRFPRMLMKLVSLRTLSSVHSEQVFALRLQDKKLPPLLSEIWDVHE
notes: also called cbe_4268726
Regarding B1, the binding result in assay [1] was “binds”.

B2: Human Papillomavirus 1a E6 (other)
chain: MATPIRTVRQLSESLCIPYIDVLLPCNFCNYFLSNAEKLLFDHFDLHLVWRDNLVFGCCQGCARTVSLLEFVLYYQESYEVPEIEEILDRPLLQIELRCVTCIKKLSVAEKLEVVSNGERVHRVRNRLKAKCSLCRLYAI
notes: also called HPV 1a E6; cbe_251919
Turning to B2, the binding result (with ANXA2; in assay [2]; in the assay with hexokinase 1) was “binds” in each case.

B3: SCGB1A1 (other)
chain: EICPSFQRVIETLLMDTPSSYEAAMELFSPDQDMREAGAQLKKLVDTLPQKPRESIIKLMEKIAQSSLCN
notes: also called cbe_4296923
For B3, in [3], the binding result is listed as “binds”.

B4: isovaleryl Coenzyme A dehydrogenase (enzyme)
chain: HSLLPVDDAINGLSEEQRQLRQTMAKFLQEHLAPKAQEIDRSNEFKNLREFWKQLGNLGVLGITAPVQYGGSGLGYLEHVLVMEEISRASGAVGLSYGAHSNLCINQLVRNGNEAQKEKYLPKLISGEYIGALAMSEPNAGSDVVSMKLKAEKKGNHYILNGNKFWITNGPDADVLIVYAKTDLAAVPASRGITAFIVEKGMPGFSTSKKLDKLGMRGSNTCELIFEDCKIPAANILGHENKGVYVLMSGLDLERLVLAGGPLGLMQAVLDHTIPYLHVREAFGQKIGHFQLMQGKMADMYTRLMACRQYVYNVAKACDEGHCTAKDCAGVILYSAECATQVALDGIQCFGGNGYINDFPMGRFLRDAKLYEIGAGTSEVRRLVIGRAFNADFH
notes: also called IVD; cbe_3800240
With B4, the binding result in assay [4] was “binds”.

B5: Human Papillomavirus 1a E7 (other)
chain: MVGEMPALKDLVLQLEPSVLDLDLYCYEEVPPDDIEEELVSPQQPYAVVASCAYCEKLVRLTVLADHSAIRQLEELLLRSLNIVCPLCTLQRQ
notes: also called HPV 1a E7; cbe_251925
Turning to B5, the binding result (with RBP4; in assay [5]; in [6]; in assay [7]; in [8]) was “binds” throughout.

B6: Human papillomavirus 16 E6 (other)
chain: MHQKRTAMFQDPQERPRKLPQLCTELQTTIHDIILECVYCKQQLLRREVYDFAFRDLCIVYRDGNPYAVCDKCLKFYSKISEYRHYCYSLYGTTLEQQYNKPLCDLLIRCINCQKPLCPEEKQRHLDKKQRFHNIRGRWTGRCMSCCRSSRTRRETQL
notes: also called HPV 16 E6; HPV16 E6
Consider B6, for which the binding result in the assay with STX4A, with PSMC1, with RPS26 and with PTPN2 was “binds” each time.
